In test [1] the target is D474A-PfCpn60 (Plasmodium falciparum mitochondrial chaperonin 60, ATP hydrolysis-deficient mutant) (Plasmodium falciparum (isolate FCR-3/Gambia)). Put plainly: negative stain electron microscopy.
Test [2] shares this target. Briefly: crystal structure; D474A-PfCpn60 with bound ATP; crystals from phosphate citrate buffer pH 4.4, 13% isopropanol, lithium sulfate; 3.69 Å; one heptameric ring in the asymmetric unit.

Drawing on PMC7960994, this text covers stoichiometry N for 1 substance.

As a reminder, the stoichiometry N is the number of molecules, sites or subunits per partner or assembly. For “D474A-PfCpn60 (Plasmodium falciparum mitochondrial chaperonin 60, ATP hydrolysis-deficient mutant) (domain or fragment)”, the stoichiometry N in test [1] turned out to be 7; in test [2], 14.
